Results from paper PMC6190850, “The RNA-Recognition Motifs of TAR DNA-Binding Protein 43 May Play a Role in the Aberrant Self-Assembly of the Protein”.

Key:
Settings in all cases: protein: recombinant; tags: 6xHis-SUMO removed by TEV; single strand
TDP-43 RRM2 = TDP-43 RRM2 (UniProt Q13148 192-269); assay: BLI; no Kd could be determined, protein up to 15 uM; BLI (Octet RED), 10 mM potassium phosphate pH 7.2, 150 mM KCl, 0.05% Tween, 25 C; RNA on streptavidin sensors, protein 1 nM-15 uM
TDP-43 RRM1-2 = TDP-43 RRM1-2 (UniProt Q13148 102-269); assay: BLI; BLI (Octet RED), 10 mM potassium phosphate pH 7.2, 150 mM KCl, 0.05% Tween, 25 C; RNA on streptavidin sensors, protein 1 nM-15 uM
[1] = target: TDP-43 RRM1 (with 15-aa C-terminal linker) (UniProt Q13148 102-191); assay: as above
Chain of TDP-43 RRM1 (with 15-aa C-terminal linker) (Q13148 102-191): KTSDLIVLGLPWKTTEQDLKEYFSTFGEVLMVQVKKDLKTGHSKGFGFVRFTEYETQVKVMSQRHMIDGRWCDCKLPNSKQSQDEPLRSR

Chain of TDP-43 RRM1-2 (Q13148 102-269): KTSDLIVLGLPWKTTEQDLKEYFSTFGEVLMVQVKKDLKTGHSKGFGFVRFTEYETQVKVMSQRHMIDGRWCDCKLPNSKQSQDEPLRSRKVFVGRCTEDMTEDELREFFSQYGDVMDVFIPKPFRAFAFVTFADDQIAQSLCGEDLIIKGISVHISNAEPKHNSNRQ
Chain of TDP-43 RRM2 (Q13148 192-269): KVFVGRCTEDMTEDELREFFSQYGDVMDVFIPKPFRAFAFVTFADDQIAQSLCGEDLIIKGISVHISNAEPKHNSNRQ

Q: Does AUUCAUUCACAC (ssRNA) [NegAUG12] bind (TDP-43 RRM2)?
A: Result: no binding

Q: And the Kd (TDP-43 RRM1-2)?
A: Its Kd is 2600 ± 600 nM.

Q: What about the Kd [1] of the same binder?
A: The Kd was 2550 ± 480 nM.

Q: For GUGUGAAUGAAU (ssRNA) [AUG12], which Kd (TDP-43 RRM1-2) is on record?
A: Its Kd is 3.9 nM.

Q: What about the Kd [1] of the same binder?
A: Its Kd is 480 ± 90 nM.
